Measurements from article PMC8976148, “Long-range structural preformation in yes-associated protein precedes encounter complex formation with TEAD” (iScience, 2022).

B1: YAP^50-171 (domain or fragment, UniProt P46937 50-171, looked up)
chain: AGHQIVHVRGDSETDLEALFNAVMNPKTANVPQTVPMRLRKLPDSFFKPPEPKSHSRQASTDAGTAGALTPQHVRAHSSPASLQLGAVSPGTLTPTGVVSGPAATPTAQHLRQSSFEIPDDV
notes: YAP (Yes-associated protein), residues 50-171; 15N-labelled in the intermolecular PRE control; also called YAP^wt; Yes-associated protein; source: E. coli Tuner(DE3), purified (HisTrap FF, 3C protease cleavage, heating to 90°C, size exclusion); not shown: His6, N-terminal, cleaved
B2: YAP^50-171 S138C (domain or fragment, UniProt P46937 50-171, looked up)
chain: AGHQIVHVRGDSETDLEALFNAVMNPKTANVPQTVPMRLRKLPDSFFKPPEPKSHSRQASTDAGTAGALTPQHVRAHSSPASLQLGAVCPGTLTPTGVVSGPAATPTAQHLRQSSFEIPDDV
notes: YAP (Yes-associated protein), residues 50-171; source: E. coli Tuner(DE3), purified (HisTrap FF, 3C protease cleavage, heating to 90°C, size exclusion; buffers with 1 mM DTT); not shown: His6, N-terminal, cleaved
B3: YAP^50-171 K90C (domain or fragment, UniProt P46937 50-171, looked up)
chain: AGHQIVHVRGDSETDLEALFNAVMNPKTANVPQTVPMRLRCLPDSFFKPPEPKSHSRQASTDAGTAGALTPQHVRAHSSPASLQLGAVSPGTLTPTGVVSGPAATPTAQHLRQSSFEIPDDV
notes: as for B2
B4: YAP^50-171 D60C (domain or fragment, UniProt P46937 50-171, looked up)
chain: AGHQIVHVRGCSETDLEALFNAVMNPKTANVPQTVPMRLRKLPDSFFKPPEPKSHSRQASTDAGTAGALTPQHVRAHSSPASLQLGAVSPGTLTPTGVVSGPAATPTAQHLRQSSFEIPDDV
notes: as for B2
B5: YAP^50-171 S127C (domain or fragment, UniProt P46937 50-171, looked up)
chain: AGHQIVHVRGDSETDLEALFNAVMNPKTANVPQTVPMRLRKLPDSFFKPPEPKSHSRQASTDAGTAGALTPQHVRAHCSPASLQLGAVSPGTLTPTGVVSGPAATPTAQHLRQSSFEIPDDV
notes: as for B2
B6: YAP^50-171 V80C (domain or fragment, UniProt P46937 50-171, looked up)
chain: AGHQIVHVRGDSETDLEALFNAVMNPKTANCPQTVPMRLRKLPDSFFKPPEPKSHSRQASTDAGTAGALTPQHVRAHSSPASLQLGAVSPGTLTPTGVVSGPAATPTAQHLRQSSFEIPDDV
notes: as for B2
B7: YAP^50-171 T119C (domain or fragment, UniProt P46937 50-171, looked up)
chain: AGHQIVHVRGDSETDLEALFNAVMNPKTANVPQTVPMRLRKLPDSFFKPPEPKSHSRQASTDAGTAGALCPQHVRAHSSPASLQLGAVSPGTLTPTGVVSGPAATPTAQHLRQSSFEIPDDV
notes: as for B2
B8: YAP^50-171 Q158C (domain or fragment, UniProt P46937 50-171, looked up)
chain: AGHQIVHVRGDSETDLEALFNAVMNPKTANVPQTVPMRLRKLPDSFFKPPEPKSHSRQASTDAGTAGALTPQHVRAHSSPASLQLGAVSPGTLTPTGVVSGPAATPTACHLRQSSFEIPDDV
notes: as for B2
B9: YAP^50-171 S149C (domain or fragment, UniProt P46937 50-171, looked up)
chain: AGHQIVHVRGDSETDLEALFNAVMNPKTANVPQTVPMRLRKLPDSFFKPPEPKSHSRQASTDAGTAGALTPQHVRAHSSPASLQLGAVSPGTLTPTGVVCGPAATPTAQHLRQSSFEIPDDV
notes: as for B2
B10: YAP^50-171 S164C (domain or fragment, UniProt P46937 50-171, looked up)
chain: AGHQIVHVRGDSETDLEALFNAVMNPKTANVPQTVPMRLRKLPDSFFKPPEPKSHSRQASTDAGTAGALTPQHVRAHSSPASLQLGAVSPGTLTPTGVVSGPAATPTAQHLRQSCFEIPDDV
notes: as for B2
B11: YAP^50-171 A71C (domain or fragment, UniProt P46937 50-171, looked up)
chain: AGHQIVHVRGDSETDLEALFNCVMNPKTANVPQTVPMRLRKLPDSFFKPPEPKSHSRQASTDAGTAGALTPQHVRAHSSPASLQLGAVSPGTLTPTGVVSGPAATPTAQHLRQSSFEIPDDV
notes: as for B2
B12: YAP^50-171 S103C (domain or fragment, UniProt P46937 50-171, looked up)
chain: AGHQIVHVRGDSETDLEALFNAVMNPKTANVPQTVPMRLRKLPDSFFKPPEPKCHSRQASTDAGTAGALTPQHVRAHSSPASLQLGAVSPGTLTPTGVVSGPAATPTAQHLRQSSFEIPDDV
notes: as for B2

biological target: T1, Biotinylated N-Avitagged-TEAD4^217-434 (UniProt Q15561 217-434, biotin (biotinylated Avitag)); assay: FRET or BRET; TR-FRET competition: biotinylated N-Avitagged TEAD4 217-434 (1 nM) on LANCE Eu-W1024 streptavidin (0.5 nM), Cy5-labelled YAP as tracer, serial dilutions of the YAP proteins; 50 mM HEPES pH 7.4, 100 mM KCl, 0.05% Tween-20, 0.25 mM TCEP, 0.05% BSA, 2% DMSO; 1 h at room temperature; details: both partners purified
T1 construct: TEAD4, residues 217-434; not shown: Avitag, N-terminal, kept
T1 sequence (Q15561 217-434): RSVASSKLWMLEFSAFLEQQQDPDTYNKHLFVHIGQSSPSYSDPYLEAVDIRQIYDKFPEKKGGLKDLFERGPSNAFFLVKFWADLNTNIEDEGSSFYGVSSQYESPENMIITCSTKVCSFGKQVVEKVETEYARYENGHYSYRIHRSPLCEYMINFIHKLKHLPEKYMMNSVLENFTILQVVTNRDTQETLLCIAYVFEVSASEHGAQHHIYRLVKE

Binding result, binds:
B1, B2, B3, B4, B5, B6, B7, B8, B9, B10, B11, B12
